According to patent publication US20110179505A1, “RODENT CANCER MODEL FOR HUMAN FGFR4 ARG388 POLYMORPHISM” (priority 2008, published 2011):
“Also recorded” adds a separate entry of the source.

B1: Beta-klotho (receptor, mouse, UniProt Q99N32 1-1043, looked up)
chain: MKTGCAAGSPGNEWIFFSSDERNTRSRKTMSNRALQRSAVLSAFVLLRAVTGFSGDGKAIWDKKQYVSPVNPSQLFLYDTFPKNFSWGVGTGAFQVEGSWKTDGRGPSIWDRYVYSHLRGVNGTDRSTDSYIFLEKDLLALDFLGVSFYQFSISWPRLFPNGTVAAVNAQGLRYYRALLDSLVLRNIEPIVTLYHWDLPLTLQEEYGGWKNATMIDLFNDYATYCFQTFGDRVKYWITIHNPYLVAWHGFGTGMHAPGEKGNLTAVYTVGHNLIKAHSKVWHNYDKNFRPHQKGWLSITLGSHWIEPNRTDNMEDVINCQHSMSSVLGWFANPIHGDGDYPEFMKTGAMIPEFSEAEKEEVRGTADFFAFSFGPNNFRPSNTVVKMGQNVSLNLRQVLNWIKLEYDDPQILISENGWFTDSYIKTEDTTAIYMMKNFLNQVLQAIKFDEIRVFGYTAWTLLDGFEWQDAYTTRRGLFYVDFNSEQKERKPKSSAHYYKQIIQDNGFPLKESTPDMKGRFPCDFSWGVTESVLKPEFTVSSPQFTDPHLYVWNVTGNRLLYRVEGVRLKTRPSQCTDYVSIKKRVEMLAKMKVTHYQFALDWTSILPTGNLSKVNRQVLRYYRCVVSEGLKLGVFPMVTLYHPTHSHLGLPLPLLSSGGWLNMNTAKAFQDYAELCFRELGDLVKLWITINEPNRLSDMYNRTSNDTYRAAHNLMIAHAQVWHLYDRQYRPVQHGAVSLSLHCDWAEPANPFVDSHWKAAERFLQFEIAWFADPLFKTGDYPSVMKEYIASKNQRGLSSSVLPRFTAKESRLVKGTVDFYALNHFTTRFVIHKQLNTNRSVADRDVQFLQDITRLSSPSRLAVTPWGVRKLLAWIRRNYRDRDIYITANGIDDLALEDDQIRKYYLEKYVQEALKAYLIDKVKIKGYYAFKLTEEKSKPRFGFFTSDFRAKSSVQFYSKLISSSGLPAENRSPACGQPAEDTDCTICSFLVEKKPLIFFGCCFISTLAVLLSITVFHHQKRRKFQKARNLQNIPLKKGHSRVFS
notes: Endogenous protein co-immunoprecipitated with hepatic FGFR4; also called βKlotho

How the values were obtained:
[1] = target: Epidermal Growth Factor Receptor (EGFR, SEQ ID NO: 77) (Homo sapiens (Human)) (UniProt P00533); experiment: cell-based or functional assay
[2] = target: T1, mouse FGFR4 Arg385 (knock-in allele) (mouse, UniProt Q03142 17-799); experiment: in vivo SILAC LC-MS/MS of FGFR4 immunoprecipitates from liver; FGFR4 Arg385 against the reference FGFR4 Gly385
T1 construct: Endogenous FGFR4 of FGFR4 Arg385 KI mice (liver lysates) and of MEFs derived from them

[3] = target: T2, mouse wild-type FGFR4 (FGFR4 Gly385) (mouse, UniProt Q03142 17-799); experiment: in vivo SILAC LC-MS/MS of FGFR4 immunoprecipitates from liver, FGFR4 Gly385 mouse with the labelled SILAC mouse as internal standard
T2 construct: Endogenous hepatic FGFR4, immunoprecipitated from mouse liver lysates; also called hepatic FGFR4

[4] = target: T2, mouse wild-type FGFR4 (FGFR4 Gly385); experiment: in vivo SILAC LC-MS/MS of FGFR4 immunoprecipitates from liver, labelled SILAC mouse against FGFR4 KO mouse
Description: The hepatic FGFR4 of the unlabelled mouse was immunoprecipitated in the presence of the blocking peptides to detect unspecific binding partners. […] Unspecific interaction partners should display a 1:1 ratio compared to the unlabelled fraction incubated with the blocking peptides. […] For that reason, the investigation of hepatic FGFR4 interaction partners was done with the liver of FGFR4 KO mice (Yu et al., 2000).
Here, significance (PEP<0.03), amount of razor peptides (RPs, >1) and an upregulation of at least 3 fold in FGFR4 KO experiments identified potential FGFR4 interaction partner.

[5] = target: T1, mouse FGFR4 Arg385 (knock-in allele); experiment: in vivo SILAC LC-MS/MS of FGFR4 immunoprecipitates from liver, FGFR4 Arg385 mouse with the labelled SILAC mouse as internal standard
[6] = system: FGFR4 Arg/Arg385 MEFs; experiment: Apoptosis assay in MEFs (propidium-iodide, FACS) after chemotherapeutic drugs; format: cell-based, mouse
Description: Transmigration of MEFs were analysed in Boyden Chambers (Schubert & Weiss, Germany). 1.5×10^4 cells were seeded in starving medium containing 0% FCS. Migration was performed to DMEM containing 4% FCS for 16 h. Afterwards cells were stained with crystal violet and migrated cells were analysed macroscopically. To perform an apoptosis assay 1.5×10^4cells in DMEM containing 10% FCS were seeded in 12-well plates. After 24 h cells were treated with 0.5 μM doxorubicin for 48 h. Afterwards cells were stained with propidium-iodide and apoptotic cells were determined in a FACS (FACScalibus, BD) analysis as previously described (27).
To support these observations by molecular analytical methods we determined whether the FGFR4 Arg385 allele is hyperactivated in MEFs and thereby enhances cell transformation. The expression of the different FGFR4 isoforms is equal in MEFs as well as its basic state of phosphorylation (FIG. 9A). Next, we wanted to check if FGFR4 Arg385 facilitates cell survival or influences physiological processes of MEFs. Therefore we analysed the number of population doublings until the cells enter senescence in vitro and additionally stained MEFs, subcultured for 30 days, for […] to visualize senescent cells. However, we found no obvious differences between the different FGFR4 alleles (FIG. 9B). […] Further we wanted to investigate the influence of the FGFR4 Arg385 allele on physiological processes. As a motility enhancing effect of is the FGFR4 Arg388 allele had already been shown by Bange and colleagues with a human mammary carcinoma cell line, we wanted to confirm this observation in MEFs, but as shown in FIG. 9C no difference observed when Gly/Gly—were compared to Arg/Arg-MEFs. Contrarily, Arg-carrying MEFs seemed to strongly support cell survival in response to DNA-damaging agents. […] Additionally, we investigated the anti-apoptotic impact of the FGFR4 Arg385 after treatment with other chemotherapeutic drugs.

[7] = target: human FGFR4 Gly388 (pLXSN-FGFR4 Gly388, overexpressed in MDA-MB-231 cells) (human) (UniProt P22455); experiment: SILAC LC-MS/MS of FGFR4 immunoprecipitates, MDA-MB-231 cells overexpressing FGFR4 Gly388, normalized to empty pLXSN control cells
[8] = target: human FGFR4 Arg388 (pLXSN-FGFR4 Arg388, overexpressed in MDA-MB-231 cells) (human) (UniProt P22455); experiment: SILAC LC-MS/MS of FGFR4 immunoprecipitates, MDA-MB-231 cells overexpressing FGFR4 Arg388, normalized to empty pLXSN control cells
[9] = target: human FGFR4 Arg388 (pLXSN-FGFR4 Arg388, overexpressed in MDA-MB-231 cells) (human) (UniProt P22455); experiment: SILAC LC-MS/MS of FGFR4 immunoprecipitates, MDA-MB-231 cells; FGFR4 Arg388 against the reference FGFR4 Gly388
[10] = system: FGFR4 Arg388 expressing MDA-MB-231 cells; experiment: Apoptosis in response to Gefitinib treatment; format: cell-based, human; conditions: Gefitinib 20 μM (p=0.012) and 10 μM (p=0.0022); 96 hours
Description: In a preferred embodiment, the proliferation rate is determined via a MTT proliferation assay, the apoptosis is determined via FACS analysis (Nicoletti et al., 1991, J. Immunol. Methods, 139: 271-279), and/or the migration is determined with a Boyden Chamber Assay, e.g. as described in the Examples below.
To further analyze the physiological connection between the EGFR and the FGFR4 we investigated the differences between the different FGFR4 alleles in MDA-MB-231 overexpressing cells upon exposure to Gefitinib. […]. Therefore, physiological processes that require the dimerization of the EGFR and the FGFR4 should lead to different results in the presence of Gefitinib compared to those obtained without an EGFR inhibitor. […]. Therefore, we investigated the impact of FGFR4 Arg388 overexpression on apoptosis in response to Gefitinib treatment in MDA-MB-231 cells. […]; 10 μM-p=0.0022). […].

[11] = system: MDA-MB-231 cells expressing FGFR4 Gly388; format: cell-based, human; conditions: up to 20 μM of Gefitinib
[12] = system: MDA-MB-231 cells expressing the FGFR4 Arg388 allele; format: cell-based, human; conditions: FIG. 20C
[13] = system: MDA-MB-231 cells expressing the empty pLXSN vector; experiment: MTT-proliferation assay with Gefitinib; format: cell-based, human; conditions: up to 20 μM of Gefitinib
[14] = system: MDA-MB-231 cells overexpressing the FGFR4 Arg388 allele; format: cell-based, human; conditions: FGFR4 Arg388 expressing cells; Gefitinib 0.025-20 μM

human FGFR4 Arg388 (pLXSN-FGFR4 Arg388, overexpressed in MDA-MB-231 cells) (human), sequence (P22455 22-802 G388R): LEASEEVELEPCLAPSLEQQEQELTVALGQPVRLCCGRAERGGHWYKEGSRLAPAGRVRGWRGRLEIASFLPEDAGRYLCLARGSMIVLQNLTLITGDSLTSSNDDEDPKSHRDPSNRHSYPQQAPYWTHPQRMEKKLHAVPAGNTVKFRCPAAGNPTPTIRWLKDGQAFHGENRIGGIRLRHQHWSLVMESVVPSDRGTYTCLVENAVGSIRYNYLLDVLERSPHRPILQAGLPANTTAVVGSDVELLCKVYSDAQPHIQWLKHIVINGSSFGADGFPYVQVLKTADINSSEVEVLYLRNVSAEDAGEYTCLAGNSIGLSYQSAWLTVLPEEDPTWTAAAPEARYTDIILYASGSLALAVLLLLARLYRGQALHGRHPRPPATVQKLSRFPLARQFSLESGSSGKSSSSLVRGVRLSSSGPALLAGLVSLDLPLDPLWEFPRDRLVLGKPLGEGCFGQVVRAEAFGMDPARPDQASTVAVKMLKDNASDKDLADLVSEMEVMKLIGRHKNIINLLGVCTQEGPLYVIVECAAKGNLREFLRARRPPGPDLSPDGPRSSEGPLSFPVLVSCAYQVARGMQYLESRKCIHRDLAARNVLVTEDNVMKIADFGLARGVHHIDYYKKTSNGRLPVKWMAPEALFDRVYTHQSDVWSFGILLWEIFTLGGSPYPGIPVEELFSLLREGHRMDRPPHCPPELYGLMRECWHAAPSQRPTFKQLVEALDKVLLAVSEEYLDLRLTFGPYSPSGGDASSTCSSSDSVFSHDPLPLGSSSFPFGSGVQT
T1 sequence (Q03142 17-799 G385R/E673G limits assumed): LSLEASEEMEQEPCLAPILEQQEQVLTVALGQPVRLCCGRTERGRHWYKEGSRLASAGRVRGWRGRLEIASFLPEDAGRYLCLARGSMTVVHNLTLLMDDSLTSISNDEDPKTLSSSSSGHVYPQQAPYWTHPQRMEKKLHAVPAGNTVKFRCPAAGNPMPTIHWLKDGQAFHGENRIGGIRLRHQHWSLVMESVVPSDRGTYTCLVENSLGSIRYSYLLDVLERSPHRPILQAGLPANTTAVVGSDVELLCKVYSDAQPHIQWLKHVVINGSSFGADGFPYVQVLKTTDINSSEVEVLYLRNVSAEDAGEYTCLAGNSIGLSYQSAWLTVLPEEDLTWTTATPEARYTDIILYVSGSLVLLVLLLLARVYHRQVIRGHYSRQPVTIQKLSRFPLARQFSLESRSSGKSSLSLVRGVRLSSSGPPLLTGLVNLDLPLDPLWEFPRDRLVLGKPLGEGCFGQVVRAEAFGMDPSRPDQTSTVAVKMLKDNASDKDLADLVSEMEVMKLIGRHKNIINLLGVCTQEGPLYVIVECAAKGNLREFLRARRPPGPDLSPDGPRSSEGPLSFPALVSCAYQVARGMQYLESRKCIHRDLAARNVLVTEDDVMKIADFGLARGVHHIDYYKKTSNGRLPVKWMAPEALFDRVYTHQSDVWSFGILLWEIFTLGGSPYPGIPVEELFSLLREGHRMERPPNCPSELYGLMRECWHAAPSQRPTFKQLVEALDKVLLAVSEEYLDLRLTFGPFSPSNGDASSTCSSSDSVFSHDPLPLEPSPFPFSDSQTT
T2 sequence (Q03142 17-799 E673G limits assumed): as the sequence (Q03142 17-799 G385R/E673G limits assumed) above, with R369G counted along it

| Molecule | ratio FGFR4 Arg385/Gly385 [2] | ratio FGFR4 Gly385 (n = 1) [3] | ratio FGFR4 KO (n = 2) [4] | ratio FGFR4 Arg385 (n = 2) [5] | further results |
| --- | --- | --- | --- | --- | --- |
| human FGFR4 Arg388 (pLXSN-FGFR4 Arg388, overexpressed in MDA-MB-231 cells) (from UniProt P22455 22-802) (receptor) |  |  |  |  | IC50 of Gefitinib, MTT-proliferation assay of MDA-MB-231 cells overexpressing the FGFR4 Arg388 allele [1]: 9.53 µM; inhibition of migration by Gefitinib (2.5 µM), Boyden Chamber Assay, 15 hours, against DMSO treated control cells [1]: 22.3% |
| Formimidoyltransferase-cyclodeaminase (from UniProt Q91XD4 1-541) (enzyme) | 2.7 | 0.4 | 3.5 fold | 1 |  |
| N.N.[Cl][Pt][Cl] [cisplatin] |  |  |  |  | apoptotic cells in Arg385 carrying MEFs compared to Gly/Gly385 MEFs ([6]; 3 μM cisplatin, 48 hrs, p=0.03): decreased apoptosis; also recorded: reduced number of apoptotic cells |
| Protein tyrosine phosphatase, receptor type, F (from UniProt P10586 30-1907) |  |  |  |  | ratio FGFR4Gly388 (n = 2) [7]: 16.6 fold; ratio FGFR4Arg388 (n = 2) [8]: 14.3 fold; ratio FGFR4Arg388/Gly388 (n = 2) [9]: 1.06 fold |
| Propanoyl-CoA C-acyltransferase (from UniProt P32020 1-547) (enzyme) | 18.6 | 0.2 | 7.8 fold | 3.6 |  |
| CC(=O)O[C@H]1C(=O)[C@@]2(C)[C@H]([C@H](OC(=O)c3ccccc3)[C@]3(O)C[C@H](OC(=O)[C@H](O)[C@@H](NC(=O)c4ccccc4)c4ccccc4)C(C)=C1C3(C)C)[C@]1(OC(C)=O)CO[C@@H]1C[C@@H]2O [taxol] |  |  |  |  | apoptotic response in Gly/Gly385 MEFs compared to Arg/Arg385 MEFs ([6]; taxol, 48 hrs): no differences in apoptotic response |
| Epidermal growth factor receptor (mouse liver, Egfr) (from UniProt Q01279 25-1210) | 3.8 | 0.3 | 5.8 fold | 1.3 |  |
| Ephrin type-A receptor 2 (from UniProt P29317 24-976) |  |  |  |  | ratio FGFR4Gly388 (n = 2) [7]: 7.97 fold; ratio FGFR4Arg388 (n = 2) [8]: 8.74 fold; ratio FGFR4Arg388/Gly388 (n = 2) [9]: 1.05 fold |
| COc1cc2ncnc(Nc3ccc(F)c(Cl)c3)c2cc1OCCCN1CCOCC1 [Gefitinib] |  |  |  |  | apoptotic response in FGFR4 Arg388 cells compared to FGFR4 Gly388 cells [10]: significantly increased apoptotic response; also recorded: significant increase in apoptosis; response in MTT-proliferation assay [11]: no response; migration in FGFR4 Arg388 cells compared to FGFR4 Gly388 cells in response to Gefitinib [12]: decrease in migration; response in MTT-proliferation assay [13]: no response; response in MTT-proliferation assay [14]: typical dose response curve |
| COc1cccc2c1C(=O)c1c(O)c3c(c(O)c1C2=O)C[C@@](O)(C(=O)CO)C[C@@H]3O[C@H]1C[C@H](N)[C@H](O)[C@H](C)O1 [doxorubicin] |  |  |  |  | apoptotic cells in Arg/Arg385 MEFs compared to Gly/Gly385 MEFs ([6]; 0.5 μM doxorubicin, 48 h, p=0.03): decreased percentage of apoptotic cells; also recorded: reduced number of apoptotic cells |
| Hydroxyacid oxidase 1 (from UniProt Q9WU19 1-370) (enzyme) | 27.8 | 0.1 | 19.7 fold | 1.6 |  |
| human FGFR4 Gly388 (pLXSN-FGFR4 Gly388, overexpressed in MDA-MB-231 cells) (from UniProt P22455 22-802) (receptor) |  |  |  |  | IC50 of Gefitinib, MTT-proliferation assay of MDA-MB-231 cells expressing FGFR4 Gly388 (same value for empty pLXSN) [1]: 18.7 µM; inhibition of migration by Gefitinib (2.5 µM), Boyden Chamber Assay, 15 hours, against DMSO treated control cells [1]: 6.28% |
| Hydroxymethylglutaryl-CoA synthase (from UniProt P54869 38-508) (enzyme) | 1 | 1.8 | 3.3 fold | 1.8 |  |
| B1 | 0.7 ratio | 3.2 ratio | 28.2 fold | 2.4 ratio |  |
